This note sets out measurements from paper PMC6872781 (Neoplasia (New York, N.Y.), 2019).

The target in the experiment is T1, PODXL1-HA(x3)-His(x6) (human, UniProt O00592-1 23-558).
T1 sequence (looked up): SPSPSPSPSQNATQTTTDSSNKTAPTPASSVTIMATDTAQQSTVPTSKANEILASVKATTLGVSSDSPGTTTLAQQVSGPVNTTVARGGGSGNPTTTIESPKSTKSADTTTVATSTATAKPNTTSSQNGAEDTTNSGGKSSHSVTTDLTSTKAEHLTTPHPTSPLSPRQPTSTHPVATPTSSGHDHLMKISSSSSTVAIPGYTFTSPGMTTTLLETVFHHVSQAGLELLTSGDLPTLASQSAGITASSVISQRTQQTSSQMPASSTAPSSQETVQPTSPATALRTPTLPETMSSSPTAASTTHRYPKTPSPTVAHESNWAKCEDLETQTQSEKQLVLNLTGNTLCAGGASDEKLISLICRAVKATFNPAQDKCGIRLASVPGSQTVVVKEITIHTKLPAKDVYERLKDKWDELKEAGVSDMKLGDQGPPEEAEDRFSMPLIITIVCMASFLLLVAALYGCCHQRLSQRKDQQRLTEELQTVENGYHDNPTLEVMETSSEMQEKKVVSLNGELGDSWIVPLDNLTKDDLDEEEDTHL
Description: pull-down.

B1: C5aR (Complement component 5a receptor 1), C-terminal 3xFlag-6xHis-tagged (receptor, human, UniProt P21730 1-350, looked up)
chain: MDSFNYTTPDYGHYDDKDTLDLNTPVDKTSNTLRVPDILALVIFAVVFLVGVLGNALVVWVTAFEAKRTINAIWFLNLAVADFLSCLALPILFTSIVQHHHWPFGGAACSILPSLILLNMYASILLLATISADRFLLVFKPIWCQNFRGAGLAWIACAVAWGLALLLTIPSFLYRVVREEYFPPKVLCGVDYSHDKRRERAVAIVRLVLGFLWPLLTLTICYTFILLRTWSRRATRSTKTLKVVVAVVASFFIFWLPYQVTGIMMSFLEPSSPTFLLLKKLDSLCVSFAYINCCINPIIYVVAGQGFQGRLRKSLPSLLRNVLTEESVVRESKSFTRSTVDTMAQKTQAV
B1: the binding result is on record as “binds”.
